Assay [1] concerns the target T1, Shc PTB domain (17 – 207) (Homo sapiens, UniProt P29353).
T1 construct: The Shc PTB domain (17 – 207) containing the pET15b vector was transformed into a Rosetta (DE3) cell line; His-tag (N); made in house; host or cells: E. coli Rosetta (DE3), pET15b
T1 sequence (P29353 17-207 isoform P29353-2): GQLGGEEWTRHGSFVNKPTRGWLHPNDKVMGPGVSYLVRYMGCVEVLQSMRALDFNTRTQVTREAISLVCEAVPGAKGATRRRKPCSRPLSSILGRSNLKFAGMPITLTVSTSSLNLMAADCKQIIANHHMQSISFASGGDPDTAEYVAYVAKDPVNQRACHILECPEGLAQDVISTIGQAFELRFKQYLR
The experiment in a line: ITC binding to Shc PTB domain. As to conditions: Shc PTB domain, 12°C and 25°C, several buffers incl. 50 mM Tris pH 8.0, 200 mM NaCl, 1 mM Dithiothreitol. The procedure:
(§1) The Shc PTB domain (17 – 207) containing the pET15b vector was transformed into a Rosetta (DE3) cell line to pursue optimal expression levels. SH2 domain (380 – 473) was cloned into NdeI and XhoI sites in pET21b vector and then transformed into a BL21 (DE3) cell line. The vector of pET28a-full length Shc (1 – 473), generously provided by Dr. Ladbury (University of Texas MD Anderson Cancer Center, TX), was expressed in a BL21 (DE3) cell line as well. Typically, 10 ml overnight culture was used to inoculate 1 liter LB broth. Cells were grown at 37°C until OD600 reached 0.6. At this point the culture was cooled to room temperature and then the overnight overexpression was induced by 1 mM isopropyl-β-D-thiogalactopyranoside. Harvested cells were kept at −20°C for future purification or resuspended in lysis buffer supplemented with protease inhibitors. Cells were further lysed by french press and the cell debris was removed by centrifugation at 18,000 rpm at 4°C. […] The overexpression of the target protein and the purified protein were confirmed by SDS-PAGE and the bands of the expected mass were observed. The determination of protein concentration by UV measurement was consistent with Bradford assay.
Calorimetric measurements of a full length Shc, PTB domain, and SH2 domain to β3 phosphopeptides or PtdIns were performed on a low volume Nano ITC (TA Instruments). All experiments were carried out in a buffer of 50 mM Tris, pH 7.5, 100 mM NaCl, 5 mM β-mercaptoethanol (unless described otherwise) at 12°C or 25°C with a stirring speed of 250 rpm to minimize the precipitation of the protein. 300 second time intervals were set between injections. The concentration of protein samples was determined by UV measurements. The titrants (β3 phosphopeptides or PtdIns) were prepared in the same buffer by the dilution of higher concentration stocks. The concentrations of the protein ranged from 30 μM to 150 μM. The concentration of protein was examined after each ITC experiment by UV to ensure the stability of proteins under the test condition. The analysis of the data was done with Nano Analyze Software (TA Instruments) suite using an “independent” model.

For the next assay, the system named is apo Shc PTB domain. The experiment in a line: 15N-HSQC NMR titration of apo Shc PTB domain. The note with it: 15N-labelled apo PTB 100 – 200 μM, 50 mM Tris pH 7.5, 100 mM NaCl, 35°C; lipid to protein up to 15 to 1 (Ins(1,4,5)P3), 5 to 1 (PtdIns(4,5)P2). The format is binding. The method, then:
^15N-labelled recombinant proteins were overexpressed in M9 medium supplemented with ^15NH4Cl as the sole nitrogen source. The same purification procedures as described above were followed. NMR samples of 100 – 200 μM were prepared in a buffer of 50 mM Tris, pH 7.5, 100 mM NaCl, 5 mM β-mercaptoethanol, 7% D2O, 1 mM 4,4-dimethyl-4-silapentane-1-sulfonic acid as the internal standard. ^15N-HSQC titration experiments were performed on a Varian/Agilent Inova 600 MHz spectrometer equipped with inverse-triple resonance cryo-probe at 35°C. All spectra were processed with NMRPipe and analyzed in CCPNmr Analysis software suite.
To find out the molecular details of these weak Shc-PtdIns interactions, we next employed NMR and performed ^15N-HSQC chemical shifts mapping experiments which are especially useful to define weak binding. […] Chemical shift perturbations, associated with the probes binding, were monitored. Overall, the observed shifts in Shc PTB resonance frequencies were small. However, they were concentration dependent, reproducible, and similar among the two PtdIns tested. […] The close-ups of 15N-HSQC spectra of PTB in the presence of PtdIns(4,5)P2, exemplifying the most shifted resonances, are shown in Figure 2. […] The first one, represented by the residues Q^148, S^149 and A^168, overlaps with the classical phosphotyrosine binding pocket of the protein-peptide binary complex. However, the canonical PTB fold cannot be formed without the stabilizing hydrophobic residue (pY-5) of the target peptide. Thus, in apo PTB domain Ins(1,4,5)P3 could only establish intermediate dynamic contacts with the amine functional groups of R^67 or Q^148 side chains. The second binding site, including the residues L^63, Q^76 and S^107, is formed at the interface of the second helix, the loop connecting the first beta strand with the second helix and the beginning of the second beta strand. This second PtdIns binding site is distinct from the second novel phosphotyrosine binding site we previously described for Shc PTB-bi-β3 complex, although it includes several overlapping residues. […]

Assay [2] has as its system Shc SH2 domain (380 – 473). The experiment in a line: ITC (and other) binding to Shc SH2 domain. As to conditions: 12°C and 25°C. The procedure:
as §1, with “The determination of protein concentration by UV measurement was consistent with Bradford assay.” left out
(§2) Calorimetric measurements of a full length Shc, PTB domain, and SH2 domain to β3 phosphopeptides or PtdIns were performed on a low volume Nano ITC (TA Instruments). […] The concentration of protein samples was determined by UV measurements. […]

The next assay addresses full length Shc. The note with it: ref [21], cited from earlier work. An excerpt: Since their discovery about two decades ago, PTB domains have been identified and structurally characterized within numerous multi-domain proteins. The ways they interact with their targets are strikingly versatile. The phosphorylated tyrosine is not always required for the high affinity interactions, and, in some cases, the binding motif might not even contain the tyrosine residue at all. PTB domains in general are also famous for the significant variance in their ligand binding affinities, ranging from 0.1 to 100 μM [17]. […] We were greatly surprised that we were not able to reproduce the data reported by George and co-workers, who have reported a tight dissociation constant (Kd of 0.7 μM) for the full length Shc. […] The conditions we tested include: i) Shc PTB domain at 12°C and 25°C in several different buffers (including exactly th ...

Assay [3] addresses T2, full length Shc (1 – 473) (Homo sapiens, UniProt P29353).
T2 construct: The vector of pET28a-full length Shc (1 – 473), generously provided by Dr. Ladbury; His-tag (N); made in house; host or cells: E. coli BL21 (DE3), pET28a (vector a gift from Dr. Ladbury)
T2 sequence (P29353 1-473 isoform P29353-2): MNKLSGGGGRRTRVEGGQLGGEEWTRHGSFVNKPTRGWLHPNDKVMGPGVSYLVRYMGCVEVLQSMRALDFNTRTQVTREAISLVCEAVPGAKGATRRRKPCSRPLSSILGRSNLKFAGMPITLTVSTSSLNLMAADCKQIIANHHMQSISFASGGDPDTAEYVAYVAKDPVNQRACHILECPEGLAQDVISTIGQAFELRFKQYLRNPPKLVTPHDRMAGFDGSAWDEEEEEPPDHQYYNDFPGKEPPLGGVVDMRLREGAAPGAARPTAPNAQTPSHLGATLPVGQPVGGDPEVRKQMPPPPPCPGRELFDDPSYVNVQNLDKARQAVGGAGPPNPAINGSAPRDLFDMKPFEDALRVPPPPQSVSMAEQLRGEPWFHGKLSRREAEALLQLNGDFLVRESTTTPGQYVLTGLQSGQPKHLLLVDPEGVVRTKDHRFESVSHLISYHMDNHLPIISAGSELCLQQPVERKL
The experiment in a line: ITC binding to full length Shc. The note with it: full length Shc, 12°C and 25°C. The method, then: as §1, with “The determination of protein concentration by UV measurement was consistent with Bradford assay.” left out
as §2

In assay [4] the target is T3, full length Shc (1 – 473) (UniProt P29353-2 1-473).
T3 construct: Shc adaptor protein, full length 1-473 (printed length 473 residues, the p52 isoform), from a pET28a vector provided by Dr. Ladbury; numbers count on: the p52 isoform; Monomeric on Superdex-75; also called Shc full length; p52 Shc; source: E. coli BL21 (DE3), purified (Ni-NTA, Superdex-75)
T3 sequence (looked up): T2 sequence (P29353 1-473 isoform P29353-2)
The experiment in a line: ITC; Nano ITC; β3 phosphopeptide titrated into the Shc protein (30-150 μM); 12°C; 50 mM Tris, pH 7.5, 100 mM NaCl, 5 mM β-mercaptoethanol; independent model. As to conditions: both partners purified. (In general: In ITC the heat of successive injections is recorded.)

The target of assay [5] is T4, Shc PTB domain (17 – 207) (UniProt P29353-2 17-207).
T4 construct: Shc adaptor protein (p52 isoform), PTB domain, residues 17-207, from a pET15b vector; numbers count on: the p52 isoform (full length 1-473); 15N-labelled (M9 medium with 15NH4Cl) for the NMR experiments; Monomeric on Superdex-75; also called apo PTB domain; source: E. coli Rosetta (DE3), purified (Ni-NTA, Superdex-75)
T4 sequence (looked up): T1 sequence (P29353 17-207 isoform P29353-2)
The assay is described as above. As to conditions: both partners purified.

Assay [6] concerns the target T4, Shc PTB domain (17 – 207). Described as above. The note with it: both partners purified. The source holds these as a separate data set.
Assay [7] concerns the target T3, full length Shc (1 – 473). The experiment in a line: ITC; Nano ITC; β3 phosphopeptide titrated into the Shc protein (30-150 μM); 25°C; 50 mM Tris, pH 7.5, 100 mM NaCl, 5 mM β-mercaptoethanol; independent model. The note with it: both partners purified.
For assay [8], the target named is T4, Shc PTB domain (17 – 207). The assay is described as above. The note with it: both partners purified.
Assay [9] has as its target T3, full length Shc (1 – 473). The description is as above. The note with it: both partners purified. The source holds these as a separate data set.
In assay [10] the target is T4, Shc PTB domain (17 – 207). Described as above. The note with it: both partners purified. This is another data set of the same source.
Assay [11] has as its target T3, full length Shc (1 – 473). The experiment in a line: ITC; Nano ITC; β3 phosphopeptide titrated into the Shc protein over-saturated by Ins(1,4,5)P3 at 3 to 1 lipid to protein ratio; 12°C. The note with it: both partners purified.
Assay [12] concerns the target T4, Shc PTB domain (17 – 207). The description is as above. The note with it: both partners purified.

“Also recorded” adds a separate entry of the source. Where no end group is shown, it is not given here. [ ]: non-standard residue; d: D form. pY = N[C@@H](Cc1ccc(OP(=O)(O)O)cc1)C(=O)O

As usually defined, the Kd is the equilibrium constant for the complex coming apart. Take `O=P(O)(O)O[C@@H]1[C@H](O)[C@H](O)[C@@H](OP(=O)(O)O)[C@H](OP(=O)(O)O)[C@H]1O` [Ins(1,4,5)P3, D-myo-Inositol-1,4,5-triphosphate]: the figures for the “binding by ITC” value in assay [1], in assay [2] and in [3] were “No binding was found; also recorded: minimal Shc PTB binding; also recorded: does not show to bind”, “No binding was found; also recorded: does not show to bind” and “No binding was found; also recorded: does not”, respectively. Besides, in the assay with apo Shc PTB domain, the “15N-HSQC chemical shift perturbations” value was “minimal chemical shift perturbations for a handful of residues; also recorded: less pronounced compared to PtdIns(4,5)P2”. The Kd at full length Shc (50 mM Tris, pH 8.0, 200 mM NaCl, 1 mM Dithiothreitol) is 0.7 µM. In the assay with full length Shc, the relative binding strength entry is reported as “much tighter than the binding of the isolated Shc PTB domain alone to PtdIns(4,5)P2”.

B1: bi-β3: β3 integrin derived bi-phosphorylated (Y747 and Y759) peptide (peptide)
peptide: RAKWDTANNPL[pY]KEATSTFTNIT[pY]RGT
notes: integrin β3 cytoplasmic tail, residues 736-762, both tyrosines phosphorylated; also called bi-phosphorylated β3 cytoplasmic tail peptide; source: synthetic peptide (NEO-Peptide)
One may read the stoichiometry N as the number of molecules, sites or subunits per partner or assembly. For the molecule B1, the Kd in assay [4] came to 5.21 µM; in [5], 4.32 µM; in assay [7], 2.84 µM; in [8] it was 5.14 µM; in assay [11] it was 4.38 µM; in [12] it was 3.65 µM. The dH was -3.89 kcal/mol in [4]; -2.75 kcal/mol in assay [5]; -6.89 kcal/mol in assay [7]; -5.49 kcal/mol in [8]; -3.32 kcal/mol in assay [11]; -2.96 kcal/mol in assay [12]. The entries for the “stoichiometry N” value in assay [6], in [9] and in assay [10] were 1 ± 0.15, 1 ± 0.15 and around 1, respectively.

The values are drawn from paper PMC4397963, “Phospho-Tyrosine(s) vs. Phosphatidylinositol Binding in Shc Mediated Integrin Signaling” (American journal of molecular biology, 2015).
